The series relates to Escherichia coli TOP10. Nature of the series: shrunken log2 fold change of peptide-encoding DNA abundance (4.5 h post-induction vs induction); higher = less antimicrobial activity (less host growth inhibition). The note with it: time post-induction: 4.5 h; library: site-saturation at positions 5, 18, 19, 20.
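Also: peptides expressed intracellularly from a pBAD plasmid library in pooled LB shake-flask culture, induced with 0.3% L-arabinose, DNA abundance read by NGS, three biological replicates, DESeq2 with apeglm shrinkage.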

For RRIRQRPPRLPRPRPRPEFHPRP, the “shrunken log2 fold change” value was -0.0296.

Take RRIRARPPRLPRPRPRPPKFPRP: the “shrunken log2 fold change” value came to 0.121.

As to RRIRRRPPRLPRPRPRPHRLPRP, the “shrunken log2 fold change” value is 0.0507.

Regarding RRIRGRPPRLPRPRPRPLRCPRP, the “shrunken log2 fold change” value came to 0.58.

For the sequence RRIRHRPPRLPRPRPRPQHYPRP, the “shrunken log2 fold change” value was -0.483.

On to RRIRQRPPRLPRPRPRPYPEPRP, for which the “shrunken log2 fold change” value was -0.0761.

Consider RRIRERPPRLPRPRPRPYNIPRP, for which the “shrunken log2 fold change” value was -0.184.

Turning to RRIRTRPPRLPRPRPRPTMSPRP, the “shrunken log2 fold change” value was -0.163.

For RRIRDRPPRLPRPRPRPLVVPRP, the “shrunken log2 fold change” value amounted to 0.102.

Regarding RRIRYRPPRLPRPRPRPVRRPRP, the “shrunken log2 fold change” value came to 0.0834.

For the sequence RRIRLRPPRLPRPRPRPNPQPRP, the “shrunken log2 fold change” value was -0.2.

Consider RRIRPRPPRLPRPRPRPVNTPRP, for which the “shrunken log2 fold change” value was -0.634.

Turning to RRIRQRPPRLPRPRPRPQSMPRP, the “shrunken log2 fold change” value is -0.395.

For the sequence RRIRDRPPRLPRPRPRPSMMPRP, the “shrunken log2 fold change” value is 0.636.

For RRIRDRPPRLPRPRPRPSYVPRP, the “shrunken log2 fold change” value is -0.206.

Consider RRIRTRPPRLPRPRPRPIPVPRP, for which the “shrunken log2 fold change” value is -0.412.

For RRIRWRPPRLPRPRPRPQNRPRP, the “shrunken log2 fold change” value was determined as 0.0839.

As for RRIRSRPPRLPRPRPRPSNCPRP, the “shrunken log2 fold change” value was -0.525.

Turning to RRIRQRPPRLPRPRPRPNTKPRP, the “shrunken log2 fold change” value was -0.199.

For the sequence RRIRARPPRLPRPRPRPHPNPRP, the “shrunken log2 fold change” value was 0.21.

For RRIRVRPPRLPRPRPRPQIEPRP, the “shrunken log2 fold change” value is -0.0116.

With RRIRKRPPRLPRPRPRPFHMPRP, the “shrunken log2 fold change” value was -0.424.

Consider RRIRPRPPRLPRPRPRPQFMPRP, for which the “shrunken log2 fold change” value is -0.259.

RRIRPRPPRLPRPRPRPFLEPRP: the “shrunken log2 fold change” value was -0.214.

RRIRGRPPRLPRPRPRPNHTPRP: the “shrunken log2 fold change” value was -0.144.

With RRIRWRPPRLPRPRPRPCWVPRP, the “shrunken log2 fold change” value is -0.116.

RRIRDRPPRLPRPRPRPRYMPRP: the “shrunken log2 fold change” value is -0.233.

Regarding RRIRPRPPRLPRPRPRPSTKPRP, the “shrunken log2 fold change” value is -0.0696.

Consider RRIRPRPPRLPRPRPRPLIPPRP, for which the “shrunken log2 fold change” value is -0.19.

Regarding RRIRRRPPRLPRPRPRPAFHPRP, the “shrunken log2 fold change” value is 0.083.

For the sequence RRIRHRPPRLPRPRPRPSPSPRP, the “shrunken log2 fold change” value is 0.00467.

With RRIRDRPPRLPRPRPRPKWWPRP, the “shrunken log2 fold change” value was determined as 0.00489.

For the sequence RRIRMRPPRLPRPRPRPRSDPRP, the “shrunken log2 fold change” value was 0.722.

With RRIRHRPPRLPRPRPRPAPDPRP, the “shrunken log2 fold change” value was -0.0192.

In the case of RRIRGRPPRLPRPRPRPVSVPRP, the “shrunken log2 fold change” value amounted to 0.624.

On to RRIRGRPPRLPRPRPRPHESPRP, for which the “shrunken log2 fold change” value came to 0.784.

For the sequence RRIRARPPRLPRPRPRPKDDPRP, the “shrunken log2 fold change” value is 0.811.

For RRIRERPPRLPRPRPRPNMWPRP, the “shrunken log2 fold change” value is -0.647.

Regarding RRIRKRPPRLPRPRPRPTMCPRP, the “shrunken log2 fold change” value stood at 0.00679.

Take RRIRDRPPRLPRPRPRPFNEPRP: the “shrunken log2 fold change” value stood at 0.0103.

Regarding RRIRIRPPRLPRPRPRPDTQPRP, the “shrunken log2 fold change” value is -0.167.

With RRIRCRPPRLPRPRPRPACYPRP, the “shrunken log2 fold change” value is 0.0371.

Consider RRIRVRPPRLPRPRPRPVYWPRP, for which the “shrunken log2 fold change” value amounted to 0.0159.

On to RRIRDRPPRLPRPRPRPEHLPRP, for which the “shrunken log2 fold change” value is -0.00213.

With RRIRLRPPRLPRPRPRPGENPRP, the “shrunken log2 fold change” value is -0.00192.

For RRIRPRPPRLPRPRPRPQTTPRP, the “shrunken log2 fold change” value is -0.161.

With RRIRCRPPRLPRPRPRPGSYPRP, the “shrunken log2 fold change” value is -0.525.

RRIRPRPPRLPRPRPRPLPWPRP: the “shrunken log2 fold change” value was found to be 0.592.

As to RRIRSRPPRLPRPRPRPNWRPRP, the “shrunken log2 fold change” value came out at 0.266.

Consider RRIRIRPPRLPRPRPRPSSLPRP, for which the “shrunken log2 fold change” value was -0.713.

Take RRIRARPPRLPRPRPRPDNTPRP: the “shrunken log2 fold change” value was -0.214.

As to RRIRFRPPRLPRPRPRPEHYPRP, the “shrunken log2 fold change” value is -0.101.

In the case of RRIRNRPPRLPRPRPRPQASPRP, the “shrunken log2 fold change” value was -0.187.

RRIRARPPRLPRPRPRPYHQPRP: the “shrunken log2 fold change” value was -0.885.

Regarding RRIRVRPPRLPRPRPRPMFSPRP, the “shrunken log2 fold change” value was -0.284.

Regarding RRIRNRPPRLPRPRPRPWHKPRP, the “shrunken log2 fold change” value is -0.0524.

Take RRIRYRPPRLPRPRPRPHILPRP: the “shrunken log2 fold change” value was -0.288.

RRIRIRPPRLPRPRPRPSVPPRP: the “shrunken log2 fold change” value is -0.835.

Consider RRIRKRPPRLPRPRPRPNDNPRP, for which the “shrunken log2 fold change” value was -0.076.

For the sequence RRIRHRPPRLPRPRPRPKALPRP, the “shrunken log2 fold change” value was found to be 0.0359.

RRIRWRPPRLPRPRPRPWVSPRP: the “shrunken log2 fold change” value is -0.0613.

Consider RRIRGRPPRLPRPRPRPMPMPRP, for which the “shrunken log2 fold change” value is 0.352.

For RRIRCRPPRLPRPRPRPFPAPRP, the “shrunken log2 fold change” value was -0.0653.

RRIRVRPPRLPRPRPRPFSIPRP: the “shrunken log2 fold change” value is -0.349.

As to RRIRMRPPRLPRPRPRPFSHPRP, the “shrunken log2 fold change” value was determined as 0.0882.

For RRIRKRPPRLPRPRPRPEFLPRP, the “shrunken log2 fold change” value is -0.00158.

With RRIRMRPPRLPRPRPRPFMMPRP, the “shrunken log2 fold change” value is -0.113.

In the case of RRIRVRPPRLPRPRPRPLMQPRP, the “shrunken log2 fold change” value was -0.0132.

In the case of RRIRTRPPRLPRPRPRPQSQPRP, the “shrunken log2 fold change” value is -0.138.

Regarding RRIRQRPPRLPRPRPRPNKAPRP, the “shrunken log2 fold change” value is -0.041.

Consider RRIRFRPPRLPRPRPRPAKSPRP, for which the “shrunken log2 fold change” value is -0.135.

On to RRIRSRPPRLPRPRPRPRKTPRP, for which the “shrunken log2 fold change” value was found to be 0.0973.

RRIRGRPPRLPRPRPRPWGFPRP: the “shrunken log2 fold change” value was -0.126.

Turning to RRIRERPPRLPRPRPRPYEFPRP, the “shrunken log2 fold change” value came to 0.00902.

In the case of RRIRTRPPRLPRPRPRPTAIPRP, the “shrunken log2 fold change” value was found to be 0.0593.

Regarding RRIRHRPPRLPRPRPRPVVRPRP, the “shrunken log2 fold change” value was 0.112.

Regarding RRIRLRPPRLPRPRPRPFPYPRP, the “shrunken log2 fold change” value was determined as 0.015.

RRIRYRPPRLPRPRPRPDRLPRP: the “shrunken log2 fold change” value was -0.216.

RRIRHRPPRLPRPRPRPNWAPRP: the “shrunken log2 fold change” value is -0.0735.

On to RRIRTRPPRLPRPRPRPKTQPRP, for which the “shrunken log2 fold change” value came to 0.19.

For RRIRLRPPRLPRPRPRPAFNPRP, the “shrunken log2 fold change” value was -0.189.

With RRIRIRPPRLPRPRPRPLSGPRP, the “shrunken log2 fold change” value was -0.0874.

With RRIRARPPRLPRPRPRPVWDPRP, the “shrunken log2 fold change” value amounted to 0.312.

On to RRIRKRPPRLPRPRPRPHVSPRP, for which the “shrunken log2 fold change” value is -0.00259.

Regarding RRIRIRPPRLPRPRPRPRDCPRP, the “shrunken log2 fold change” value was -0.296.

Turning to RRIRARPPRLPRPRPRPWNHPRP, the “shrunken log2 fold change” value was -0.128.

As for RRIRVRPPRLPRPRPRPICGPRP, the “shrunken log2 fold change” value was found to be 0.0607.

RRIRYRPPRLPRPRPRPMVYPRP: the “shrunken log2 fold change” value was -0.00783.

On to RRIRKRPPRLPRPRPRPRFNPRP, for which the “shrunken log2 fold change” value is 0.0969.

Consider RRIRARPPRLPRPRPRPDILPRP, for which the “shrunken log2 fold change” value amounted to 0.0584.

For the sequence RRIRRRPPRLPRPRPRPYNVPRP, the “shrunken log2 fold change” value is -0.181.

For the sequence RRIRVRPPRLPRPRPRPHATPRP, the “shrunken log2 fold change” value came to 0.204.

Regarding RRIRPRPPRLPRPRPRPNFVPRP, the “shrunken log2 fold change” value was -0.0668.

In the case of RRIRERPPRLPRPRPRPWYRPRP, the “shrunken log2 fold change” value is -0.217.

For the sequence RRIRIRPPRLPRPRPRPKSSPRP, the “shrunken log2 fold change” value is -0.143.

Turning to RRIRVRPPRLPRPRPRPNLTPRP, the “shrunken log2 fold change” value is -0.186.

With RRIRFRPPRLPRPRPRPYHHPRP, the “shrunken log2 fold change” value is -1.16.

In the case of RRIRGRPPRLPRPRPRPADAPRP, the “shrunken log2 fold change” value came to 1.

For the sequence RRIRTRPPRLPRPRPRPWMMPRP, the “shrunken log2 fold change” value turned out to be 0.0505.

RRIRCRPPRLPRPRPRPRWMPRP: the “shrunken log2 fold change” value worked out at 0.346.

As to RRIRPRPPRLPRPRPRPENCPRP, the “shrunken log2 fold change” value amounted to 0.151.

RRIRFRPPRLPRPRPRPRTYPRP: the “shrunken log2 fold change” value was -0.794.

Take RRIRGRPPRLPRPRPRPHQQPRP: the “shrunken log2 fold change” value came to 0.101.

Turning to RRIRSRPPRLPRPRPRPRDGPRP, the “shrunken log2 fold change” value stood at 1.5.

In the case of RRIRWRPPRLPRPRPRPAVKPRP, the “shrunken log2 fold change” value is -0.197.

As to RRIRPRPPRLPRPRPRPIVTPRP, the “shrunken log2 fold change” value was -0.164.

In the case of RRIRGRPPRLPRPRPRPDMLPRP, the “shrunken log2 fold change” value worked out at 0.526.

In the case of RRIRGRPPRLPRPRPRPMRRPRP, the “shrunken log2 fold change” value turned out to be 1.25.

Regarding RRIRSRPPRLPRPRPRPYTPPRP, the “shrunken log2 fold change” value was -1.07.

On to RRIRRRPPRLPRPRPRPGMHPRP, for which the “shrunken log2 fold change” value is 0.217.

With RRIRVRPPRLPRPRPRPHLWPRP, the “shrunken log2 fold change” value was -0.0616.

As for RRIRGRPPRLPRPRPRPHTGPRP, the “shrunken log2 fold change” value is -0.0945.

RRIRDRPPRLPRPRPRPMCGPRP: the “shrunken log2 fold change” value came to 1.12.

For the sequence RRIRYRPPRLPRPRPRPRDIPRP, the “shrunken log2 fold change” value is -0.0839.

Turning to RRIRGRPPRLPRPRPRPGSWPRP, the “shrunken log2 fold change” value came to 0.938.

On to RRIRLRPPRLPRPRPRPVGAPRP, for which the “shrunken log2 fold change” value was 0.349.

Consider RRIRCRPPRLPRPRPRPDVTPRP, for which the “shrunken log2 fold change” value stood at 0.0172.

RRIRLRPPRLPRPRPRPLGAPRP: the “shrunken log2 fold change” value worked out at 0.387.

Take RRIRTRPPRLPRPRPRPAYMPRP: the “shrunken log2 fold change” value is -0.384.

For the sequence RRIRRRPPRLPRPRPRPQTKPRP, the “shrunken log2 fold change” value was determined as 0.161.

RRIRWRPPRLPRPRPRPCLVPRP: the “shrunken log2 fold change” value stood at 0.144.

In the case of RRIRRRPPRLPRPRPRPQMWPRP, the “shrunken log2 fold change” value was -0.00576.

As for RRIRNRPPRLPRPRPRPREKPRP, the “shrunken log2 fold change” value turned out to be 0.377.

Consider RRIRKRPPRLPRPRPRPGVTPRP, for which the “shrunken log2 fold change” value was determined as 0.409.

In the case of RRIRSRPPRLPRPRPRPQDHPRP, the “shrunken log2 fold change” value was -0.794.

The values are drawn from the supplement of paper PMC9112550, “Optimization of the antimicrobial peptide Bac7 by deep mutational scanning” (BMC Biology, 2022).
